Assays:
[1] = molecular target: T1, human CD40 on the cell surface (human, UniProt P25942 21-277); experiment: FACS, human dendritic cells, MFI
T1 construct: whole, on cells; also called cell surface CD40; Jurkat-CD40

[2] = molecular target: T1, human CD40 on the cell surface; experiment: FACS, Jurkat cells overexpressing human CD40, PE anti-human IgG, MFI
Description: To evaluate the binding affinity of 5T4-CD40 bispecific antibodies to cell surface CD40, bispecific antibodies with formats of b 1 (42p155z2), b12 (42p155z2), b13 (42p155z2), b16 (42p155z2), b17 (42p155z2) and b18 (2p1130) were tested in Jurkat cell lines that overexpressed CD40 by FACS. A total number of 1×10⁵ Jurkat-CD40 cells in each well were incubated with 5-fold serially diluted antibodies starting from 100 nM for 30 minutes at 4° C. in FACS buffer. After wash by FACS buffer, PE conjugated-anti-human IgG antibody was added to each well and incubated at 4° C. for 30 minutes. After wash, MFI of PE was evaluated by MACSQuant Analyzer 16.

T1 sequence (P25942 21-277): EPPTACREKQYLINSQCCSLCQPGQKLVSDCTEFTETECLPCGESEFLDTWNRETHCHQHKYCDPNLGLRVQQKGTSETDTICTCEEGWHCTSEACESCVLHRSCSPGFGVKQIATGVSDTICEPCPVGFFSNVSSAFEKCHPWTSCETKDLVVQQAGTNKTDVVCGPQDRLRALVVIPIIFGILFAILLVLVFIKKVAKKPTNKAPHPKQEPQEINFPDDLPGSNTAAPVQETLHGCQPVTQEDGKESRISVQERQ

EC50 (read off the curve) [1]: ~0.7 nM | EC50 (read off the curve) [2]: ~0.5 nM
B1: b16 (42p155z2) anti-5T4/CD40 bispecific antibody (bispecific antibody, human IgG1, kappa, N297A)
heavy 1: EVQLQQSGPELVKPGASVKISCKASGYAFSSSWMNWVKQRPGKGLEWIGRIYREDGHTNYNGKFKGKATLTADKSSTTAYMQLTSLTSEDSAVYFCANGGAMDYWGQGTSVTVSSASTKGPSVFPLAPSSKSTSGGTAALGCLVKDYFPEPVTVSWNSGALTSGVHTFPAVLQSSGLYSLSSVVTVPSSSLGTQTYICNVNHKPSNTKVDKKVEPKSCDKTHTCPPCPAPELLGGPSVFLFPPKPKDTLMISRTPEVTCVVVDVSHEDPEVKFNWYVDGVEVHNAKTKPREEQYASTYRVVSVLTVLHQDWLNGKEYKCKVSNKALPAPIEKTISKAKGQPREPQVCTLPPSREEMTKNQVSLSCAVKGFYPSDIAVEWESNGQPENNYKTTPPVLDSDGSFFLVSKLTVDKSRWQQGNVFSCSVMHEALHNHYTQKSLSLSPGK
light: DIQMTQSTSSLSASLGDRVTISCRASQDISNYLNWYQQKPDGTVKLLIYYTSRLHSGVPSRFSGSGSGTDYSLTISNLEQEDIATYFCQQDNTLPWTFGGGTKLEIKRTVAAPSVFIFPPSDEQLKSGTASVVCLLNNFYPREAKVQWKVDNALQSGNSQESVTEQDSKDSTYSLSSTLTLSKADYEKHKVYACEVTHQGLSSPVTKSFNRGEC
heavy 2: not shown
notes: also called 1+2 b16 format; chimeric antibody b16 (42p155z2)

— patent US20240287208A1 (CONCEPT TO MEDICINE BIOTECH, published 2024)
